Source: patent US20240000838A1 (SIMCERE INNOVATION, published 2024)

Experiments:
[1] = molecular target: T1, CD5 on human T cells (autologous and allogeneic Pan-T cells) and on the T-ALL cell line CCRF-CEM (human, UniProt P06127 25-495); assay: cell-based or functional assay
T1 sequence (looked up): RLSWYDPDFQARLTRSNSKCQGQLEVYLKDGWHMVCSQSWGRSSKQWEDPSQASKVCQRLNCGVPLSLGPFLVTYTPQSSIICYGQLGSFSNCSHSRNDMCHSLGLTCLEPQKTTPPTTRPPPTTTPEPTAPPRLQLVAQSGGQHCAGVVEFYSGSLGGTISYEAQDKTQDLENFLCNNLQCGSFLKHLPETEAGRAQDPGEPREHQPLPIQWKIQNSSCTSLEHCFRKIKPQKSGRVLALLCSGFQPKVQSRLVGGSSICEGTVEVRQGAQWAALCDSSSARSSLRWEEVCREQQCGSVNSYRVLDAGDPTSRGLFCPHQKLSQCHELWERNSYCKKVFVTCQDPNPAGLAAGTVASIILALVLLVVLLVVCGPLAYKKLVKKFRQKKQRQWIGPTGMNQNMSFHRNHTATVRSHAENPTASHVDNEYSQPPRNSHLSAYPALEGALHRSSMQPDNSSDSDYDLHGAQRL

[2] = molecular target: T2, CD33 human protein-PE (Sino Biological, 12238-HCCH_P) (human, UniProt P20138 18-259, PE label); assay: flow cytometry; CAR-T cells stained with CD33 human protein-PE
T2 construct: Bought staining reagent; also called CD33 antigen
T2 sequence (P20138 18-259 limits assumed): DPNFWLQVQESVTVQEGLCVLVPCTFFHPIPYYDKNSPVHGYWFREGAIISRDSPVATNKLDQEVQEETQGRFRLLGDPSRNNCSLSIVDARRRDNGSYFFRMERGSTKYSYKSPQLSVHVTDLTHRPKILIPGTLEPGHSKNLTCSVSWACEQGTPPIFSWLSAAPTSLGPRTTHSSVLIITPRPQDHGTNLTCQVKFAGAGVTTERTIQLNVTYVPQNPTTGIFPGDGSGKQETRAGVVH
Method: CD3 and CD5 are stained with a CD3-FITC antibody (BD Biosciences, #555339) and a CD5-APC antibody (BD Biosciences, #555355) for 30 minutes at R.T. in the dark. CAR5 surface expression is detected by staining with Human CD5 Protein, HisTag (AcroBiosystems, Cat #CD5-H52H5) for 1 hour at R.T., washed and then incubated with His-APC antibody (R&D Systems, IC050A) for 30 minutes at R.T. in the dark. CAR33 expression is stained with CD33 human protein-PE (Sino Biological, 12238-HCCH_P) for 1 hour at R.T. All the staining is performed at 1:10 dilutions. DAPI (Thermo Scientific, Cat #BV-421, 1:5000) is used to stain dead cells before running by the Attune NxT Flow Cytometer (Thermo Fisher Scientific). Data is further analyzed by either using Attune NxT flow software or FlowJo software.

| Binder | elimination of CCRF-CEM cells after 18 hours (luciferase-based killing assay) [1] [%] | binding result [2] |
| --- | --- | --- |
| CD5/CD33 Dual-CAR, construct S048 (other) DIQMTQSPSSLSASVGDRVTITCRASESVDNYGISFMNWFQQKPGKAPKLLIYAASNQGSGVPSRFSGSGSGTDFTLTISSLQPDDFATYYCQQSKEVPWTFGQGTKVEIKGGGGSGGGGSGGGGSQVQLVQSGAEVKKPGSSVKVSCKASGYTFTDYNMHWVRQAPGQGLEWIGYIYPYNGGTGYNQKFKSKATITADESTNTAYMELSSLRSEDTAVYYCARGRPAMDYWGQGTLVTVSSASTTTPAPRPPTPAPTIASQPLSLRPEACRPAAGGAVHTRGLDFACDIYIWAPLAGTCGVLLLSLVITLYCKRGRKKLLYIFKQPFMRPVQTTQEEDGCSCRFPEEEEGGCELRVKFSRSADAPAYKQGQNQLYNELNLGRREEYDVLDKRRGRDPEMGGKPRRKNPQEGLYNELQKDKMAEAYSEIGMKGERRRGKGHDGLYQGLSTATKDTYDALHMQALPPRGSGATNFSLLKQAGDVEENPGPMALPVTALLLPLALLLHAARPDIKMTQSPSSMYASLGERVTITCKASQDINSYLSWFHHKPGKSPKTLIYRANRLVDGVPSRFSGSGSGQDYSLTISSLDYEDMGIYYCQQYDESPWTFGGGTKLEMKGGGGSGGGGSGGGGSNIQLVQSGPELKKPGETVKISCKASGYTFTNYGMNWVKQAPGKGLRWMGWINTHTGEPTYADDFKGRFAFSLETSASTAYLQINNLKNEDTATYFCTRRGYDWYFDVWGAGTTVTVSSSGTTTPAPRPPTPAPTIASQPLSLRPEACRPAAGGAVHTRGLDFACDIYIWAPLAGTCGVLLLSLVITLYCKRGRKKLLYIFKQPFMRPVQTTQEEDGCSCRFPEEEEGGCELRVKFSRSADAPAYKQGQNQLYNELNLGRREEYDVLDKRRGRDPEMGGKPRRKNPQEGLYNELQKDKMAEAYSEIGMKGERRRGKGHDGLYQGLSTATKDTYDALHMQALPPRFE | ~100 |  |
| CD5/CD33 Dual-CAR, construct S043 (other) QVQLVQSGAEVKKPGSSVKVSCKASGYTFTDYNMHWVRQAPGQGLEWIGYIYPYNGGTGYNQKFKSKATITADESTNTAYMELSSLRSEDTAVYYCARGRPAMDYWGQGTLVTVSSGGGGSDIQMTQSPSSLSASVGDRVTITCRASQDINSYLSWFQQKPGKAPKTLIYRANRLESGVPSRFSGSGSGTDYTLTISSLQYEDFGIYYCQQYDESPWTFGGGTKLEIKGSTSGSGKPGSGEGSTKGEIQLVQSGGGLVKPGGSVRISCAASGYTFTNYGMNWVRQAPGKGLEWMGWINTHTGEPTYADSFKGRFTFSLDDSKNTAYLQINSLRAEDTAVYFCTRRGYDWYFDVWGQGTTVTVSSGGGGSDIQMTQSPSSLSASVGDRVTITCRASESVDNYGISFMNWFQQKPGKAPKLLIYAASNQGSGVPSRFSGSGSGTDFTLTISSLQPDDFATYYCQQSKEVPWTFGQGTKVEIKASTTTPAPRPPTPAPTIASQPLSLRPEACRPAAGGAVHTRGLDFACDIYIWAPLAGTCGVLLLSLVITLYCKRGRKKLLYIFKQPFMRPVQTTQEEDGCSCRFPEEEEGGCELRVKFSRSADAPAYKQGQNQLYNELNLGRREEYDVLDKRRGRDPEMGGKPRRKNPQEGLYNELQKDKMAEAYSEIGMKGERRRGKGHDGLYQGLSTATKDTYDALHMQALPPR | ~100 |  |
| CD33 CAR CAR33-1, construct S011 (other, Chimeric antigen receptor on T cells) DIQMTQSPSSLSASVGDRVTITCRASESVDNYGISFMNWFQQKPGKAPKLLIYAASNQGSGVPSRFSGSGSGTDFTLTISSLQPDDFATYYCQQSKEVPWTFGQGTKVEIKGGGGSGGGGSGGGGSQVQLVQSGAEVKKPGSSVKVSCKASGYTFTDYNMHWVRQAPGQGLEWIGYIYPYNGGTGYNQKFKSKATITADESTNTAYMELSSLRSEDTAVYYCARGRPAMDYWGQGTLVTVSSASTTTPAPRPPTPAPTIASQPLSLRPEACRPAAGGAVHTRGLDFACDIYIWAPLAGTCGVLLLSLVITLYCKRGRKKLLYIFKQPFMRPVQTTQEEDGCSCRFPEEEEGGCELRVKFSRSADAPAYKQGQNQLYNELNLGRREEYDVLDKRRGRDPEMGGKPRRKNPQEGLYNELQKDKMAEAYSEIGMKGERRRGKGHDGLYQGLSTATKDTYDALHMQALPPR |  | binds |
| CD5/CD33 Dual-CAR, construct S049 (other) DIQMTQSPSSLSASVGDRVTITCRASESVDNYGISFMNWFQQKPGKAPKLLIYAASNQGSGVPSRFSGSGSGTDFTLTISSLQPDDFATYYCQQSKEVPWTFGQGTKVEIKGGGGSGGGGSGGGGSQVQLVQSGAEVKKPGSSVKVSCKASGYTFTDYNMHWVRQAPGQGLEWIGYIYPYNGGTGYNQKFKSKATITADESTNTAYMELSSLRSEDTAVYYCARGRPAMDYWGQGTLVTVSSASTTTPAPRPPTPAPTIASQPLSLRPEACRPAAGGAVHTRGLDFACDIYIWAPLAGTCGVLLLSLVITLYCKRGRKKLLYIFKQPFMRPVQTTQEEDGCSCRFPEEEEGGCELRVKFSRSADAPAYKQGQNQLYNELNLGRREEYDVLDKRRGRDPEMGGKPRRKNPQEGLYNELQKDKMAEAYSEIGMKGERRRGKGHDGLYQGLSTATKDTYDALHMQALPPRGSGATNFSLLKQAGDVEENPGPMALPVTALLLPLALLLHAARPDIQMTQSPSSLSASVGDRVTITCRASQDINSYLSWFQQKPGKAPKTLIYRANRLESGVPSRFSGSGSGTDYTLTISSLQYEDFGIYYCQQYDESPWTFGGGTKLEIKGGGGSGGGGSGGGGSEIQLVQSGGGLVKPGGSVRISCAASGYTFTNYGMNWVRQAPGKGLEWMGWINTHTGEPTYADSFKGRFTFSLDDSKNTAYLQINSLRAEDTAVYFCTRRGYDWYFDVWGQGTTVTVSSSGTTTPAPRPPTPAPTIASQPLSLRPEACRPAAGGAVHTRGLDFACDIYIWAPLAGTCGVLLLSLVITLYCKRGRKKLLYIFKQPFMRPVQTTQEEDGCSCRFPEEEEGGCELRVKFSRSADAPAYKQGQNQLYNELNLGRREEYDVLDKRRGRDPEMGGKPRRKNPQEGLYNELQKDKMAEAYSEIGMKGERRRGKGHDGLYQGLSTATKDTYDALHMQALPPRFE | ~100 |  |
| CD33 CAR CAR33-4, construct S014 (other, Chimeric antigen receptor on T cells) QVQLQQPGAEVVKPGASVKMSCKASGYTFTSYYIHWIKQTPGQGLEWVGVIYPGNDDISYNQKFQGKATLTADKSSTTAYMQLSSLTSEDSAVYYCAREVRLRYFDVWGQGTTVTVSSGGGGSGGGGSGGGGSEIVLTQSPGSLAVSPGERVTMSCKSSQSVFFSSSQKNYLAWYQQIPGQSPRLLIYWASTRESGVPDRFTGSGSGTDFTLTISSVQPEDLAIYYCHQYLSSRTFGQGTKLEIKRASTTTPAPRPPTPAPTIASQPLSLRPEACRPAAGGAVHTRGLDFACDIYIWAPLAGTCGVLLLSLVITLYCKRGRKKLLYIFKQPFMRPVQTTQEEDGCSCRFPEEEEGGCELRVKFSRSADAPAYKQGQNQLYNELNLGRREEYDVLDKRRGRDPEMGGKPRRKNPQEGLYNELQKDKMAEAYSEIGMKGERRRGKGHDGLYQGLSTATKDTYDALHMQALPPR |  | binds |
| CD33 CAR CAR33-6, construct S016 (other, Chimeric antigen receptor on T cells) QVQLQQPGAEVVKPGASVKMSCKASGYTFTSYYIHWIKQTPGQGLEWVGVIYPGNDDISYNQKFKGKATLTADKSSTTAYMQLSSLTSEDSAVYYCAREVRLRYFDVWGAGTTVTVSSGGGGSGGGGSGGGGSNIMLTQSPSSLAVSAGEKVTMSCKSSQSVFFSSSQKNYLAWYQQIPGQSPKLLIYWASTRESGVPDRFTGSGSGTDFTLTISSVQSEDLAIYYCHQYLSSRTFGGGTKLEIKRASTTTPAPRPPTPAPTIASQPLSLRPEACRPAAGGAVHTRGLDFACDIYIWAPLAGTCGVLLLSLVITLYCKRGRKKLLYIFKQPFMRPVQTTQEEDGCSCRFPEEEEGGCELRVKFSRSADAPAYKQGQNQLYNELNLGRREEYDVLDKRRGRDPEMGGKPRRKNPQEGLYNELQKDKMAEAYSEIGMKGERRRGKGHDGLYQGLSTATKDTYDALHMQALPPR |  | binds |
